The results in this text go back to patent publication US20200079833A1 (AstraZeneca / MedImmune, published 2020).

Starred links: 1 amine or outer side, 2 acyl side, 3 side chain; linkers in the order of their positions; H or OH if unused. Non-standard residues stand in square brackets, D forms with d. Groups on a side chain read outwards from the residue. Primed or numbered codes have the meaning given here. No end group written: not given here. *: point of attachment. γGlu = O=C(O)[C@H](CCC(=O)[*:2])N[*:1]; Stearoyl = CCCCCCCCCCCCCCCCCC(=O)*; αMeF = C[C@](N)(Cc1ccccc1)C(=O)O; αMeK = C[C@](N)(CCCCN)C(=O)O; αMeS = C[C@](N)(CO)C(=O)O; PEG2′ = not defined here; Aib = CC(C)(N)C(=O)O

The labels stand for the following.
T1: glucose-dependent insulinotropic peptide (gastric inhibitory polypeptide) receptor (GIPR) (human, UniProt P48546 22-466)
T1 sequence (looked up): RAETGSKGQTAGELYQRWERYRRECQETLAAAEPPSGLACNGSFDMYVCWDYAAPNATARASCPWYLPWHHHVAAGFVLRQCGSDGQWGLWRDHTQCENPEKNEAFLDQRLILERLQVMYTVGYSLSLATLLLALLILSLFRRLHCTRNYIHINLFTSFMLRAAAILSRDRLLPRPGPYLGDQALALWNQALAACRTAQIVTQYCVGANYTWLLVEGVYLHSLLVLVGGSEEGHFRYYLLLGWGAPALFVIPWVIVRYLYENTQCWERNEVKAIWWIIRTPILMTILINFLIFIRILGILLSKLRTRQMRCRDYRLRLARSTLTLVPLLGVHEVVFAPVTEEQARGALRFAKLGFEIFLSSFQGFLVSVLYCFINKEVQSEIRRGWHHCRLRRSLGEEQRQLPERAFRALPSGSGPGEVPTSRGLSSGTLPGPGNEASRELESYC

The first assay has as its target GLP-1 receptor (GLP-1R) (human, UniProt P43220 24-463). In words: cell-based or functional assay.
In the case of H[Aib]EGS[αMeF]TSDVK([PEG2′-PEG2′-γGlu-Stearoyl])S[αMeF]LEGEAA[αMeK]E[αMeF]IA[αMeF]VV[αMeK]GG-NH2 [SEQ ID NO 118], the “cAMP Mean pM GLP-1R” value stood at 783 pM, the “cAMP Primary assay EC50 GLP-1R n1” value turned out to be 0.81 nM and the “cAMP Primary assay EC50 GLP-1R n2” value stood at 0.758 nM.
Regarding H[Aib]EGS[αMeF]TSDV[αMeS]S[αMeF]LEGEAA[αMeK]K([PEG2′-PEG2′-γGlu-Stearoyl])[αMeF]IA[αMeF]VV[αMeK]GG-NH2 [SEQ ID NO 108], the “cAMP Mean pM GLP-1R” value is 4 pM, the “cAMP Primary assay EC50 GLP-1R n1” value was determined as 0.0038 nM and the “cAMP Primary assay EC50 GLP-1R n2” value is 0.00346 nM.
On to H[Aib]EGS[αMeF]TSDK([PEG2′-PEG2′-γGlu-Stearoyl])[αMeS]S[αMeF]LEGEAA[αMeK]E[αMeF]IA[αMeF]VV[αMeK]GG-NH2 [SEQ ID NO 119], for which the “cAMP Mean pM GLP-1R” value came to 17 pM, the “cAMP Primary assay EC50 GLP-1R n1” value was 0.018 nM and the “cAMP Primary assay EC50 GLP-1R n2” value came out at 0.0157 nM.
H[Aib]EGS[αMeF]TSDV[αMeS]S[αMeF]LEGK([PEG2′-PEG2′-γGlu-Stearoyl])AA[αMeK]E[αMeF]IA[αMeF]VV[αMeK]GG-NH2 [SEQ ID NO 112]: the “cAMP Mean pM GLP-1R” value was 6 pM, the “cAMP Primary assay EC50 GLP-1R n1” value was found to be 0.0061 nM and the “cAMP Primary assay EC50 GLP-1R n2” value was 0.00507 nM.
Turning to H[Aib]EGS[αMeF]TSDV[αMeS]S[αMeF]LK([PEG2′-PEG2′-γGlu-Stearoyl])GEAA[αMeK]E[αMeF]IA[αMeF]VV[αMeK]GG-NH2 [SEQ ID NO 114], the “cAMP Mean pM GLP-1R” value came to 503 pM, the “cAMP Primary assay EC50 GLP-1R n1” value came out at 0.55 nM and the “cAMP Primary assay EC50 GLP-1R n2” value came to 0.458 nM.
For the molecule H[Aib]EGS[αMeF]TSDV[αMeS]S[αMeF]LEGEAA[αMeK]E[αMeF]IA[αMeF]K([PEG2′-PEG2′-γGlu-Stearoyl])V[αMeK]GG-NH2 [SEQ ID NO 103], the “cAMP Mean pM GLP-1R” value amounted to 5 pM, the “cAMP Primary assay EC50 GLP-1R n1” value was 0.0047 nM and the “cAMP Primary assay EC50 GLP-1R n2” value was determined as 0.00456 nM.
As for H[Aib]EGS[αMeF]TSDV[αMeS]K([PEG2′-PEG2′-γGlu-Stearoyl])[αMeF]LEGEAA[αMeK]E[αMeF]IA[αMeF]VV[αMeK]GG-NH2 [SEQ ID NO 117], the “cAMP Mean pM GLP-1R” value stood at 25 pM, the “cAMP Primary assay EC50 GLP-1R n1” value is 0.026 nM and the “cAMP Primary assay EC50 GLP-1R n2” value amounted to 0.0244 nM.
For the molecule H[Aib]EGS[αMeF]TSDV[αMeS]S[αMeF]LEGEAA[αMeK]E[αMeF]IAK([PEG2′-PEG2′-γGlu-Stearoyl])VV[αMeK]GG-NH2 [SEQ ID NO 104], the “cAMP Mean pM GLP-1R” value worked out at 5 pM, the “cAMP Primary assay EC50 GLP-1R n1” value stood at 0.0059 nM and the “cAMP Primary assay EC50 GLP-1R n2” value is 0.00511 nM.

In the next assay the target is glucagon receptor (GCGR) (human, UniProt P47871 26-477). In words: cell-based or functional assay.
glucagon receptor (GCGR), sequence (P47871 26-477): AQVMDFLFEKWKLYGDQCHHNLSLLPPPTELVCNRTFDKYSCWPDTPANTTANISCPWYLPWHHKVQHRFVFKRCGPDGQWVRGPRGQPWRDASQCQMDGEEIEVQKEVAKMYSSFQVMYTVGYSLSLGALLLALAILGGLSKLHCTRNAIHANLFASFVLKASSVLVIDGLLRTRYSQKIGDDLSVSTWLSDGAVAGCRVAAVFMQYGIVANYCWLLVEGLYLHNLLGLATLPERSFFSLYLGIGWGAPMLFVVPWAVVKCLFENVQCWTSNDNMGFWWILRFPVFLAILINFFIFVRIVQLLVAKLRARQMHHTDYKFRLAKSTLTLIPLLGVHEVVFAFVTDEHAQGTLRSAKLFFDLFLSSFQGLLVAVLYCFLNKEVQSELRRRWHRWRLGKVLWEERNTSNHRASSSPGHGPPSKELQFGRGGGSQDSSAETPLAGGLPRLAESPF
Consider H[Aib]EGS[αMeF]TSDVK([PEG2′-PEG2′-γGlu-Stearoyl])S[αMeF]LEGEAA[αMeK]E[αMeF]IA[αMeF]VV[αMeK]GG-NH2 [SEQ ID NO 118], for which the “cAMP Primary assay EC50 Gluc-R” value is 25 nM and the “cAMP Primary assay EC50 Gluc-R (2nd)” value was determined as 25.2 nM.
The corresponding values for H[Aib]EGS[αMeF]TSDV[αMeS]S[αMeF]LEGEAA[αMeK]K([PEG2′-PEG2′-γGlu-Stearoyl])[αMeF]IA[αMeF]VV[αMeK]GG-NH2 [SEQ ID NO 108] are 25 nM and 25.4 nM.
On to H[Aib]EGS[αMeF]TSDK([PEG2′-PEG2′-γGlu-Stearoyl])[αMeS]S[αMeF]LEGEAA[αMeK]E[αMeF]IA[αMeF]VV[αMeK]GG-NH2 [SEQ ID NO 119], for which the “cAMP Primary assay EC50 Gluc-R” value was 25 nM and the “cAMP Primary assay EC50 Gluc-R (2nd)” value was 25.2 nM.
For the molecule H[Aib]EGS[αMeF]TSDV[αMeS]S[αMeF]LEGK([PEG2′-PEG2′-γGlu-Stearoyl])AA[αMeK]E[αMeF]IA[αMeF]VV[αMeK]GG-NH2 [SEQ ID NO 112], the “cAMP Primary assay EC50 Gluc-R” value was determined as 25 nM and the “cAMP Primary assay EC50 Gluc-R (2nd)” value is 25.4 nM.
In the same order, the values of H[Aib]EGS[αMeF]TSDV[αMeS]S[αMeF]LK([PEG2′-PEG2′-γGlu-Stearoyl])GEAA[αMeK]E[αMeF]IA[αMeF]VV[αMeK]GG-NH2 [SEQ ID NO 114] are 25 nM and 25.4 nM.
For H[Aib]EGS[αMeF]TSDV[αMeS]S[αMeF]LEGEAA[αMeK]E[αMeF]IA[αMeF]K([PEG2′-PEG2′-γGlu-Stearoyl])V[αMeK]GG-NH2 [SEQ ID NO 103], the “cAMP Primary assay EC50 Gluc-R” value amounted to 25 nM and the “cAMP Primary assay EC50 Gluc-R (2nd)” value came out at 25.2 nM.
On to H[Aib]EGS[αMeF]TSDV[αMeS]K([PEG2′-PEG2′-γGlu-Stearoyl])[αMeF]LEGEAA[αMeK]E[αMeF]IA[αMeF]VV[αMeK]GG-NH2 [SEQ ID NO 117], for which the “cAMP Primary assay EC50 Gluc-R” value came out at 25 nM and the “cAMP Primary assay EC50 Gluc-R (2nd)” value came to 25.1 nM.
Turning to H[Aib]EGS[αMeF]TSDV[αMeS]S[αMeF]LEGEAA[αMeK]E[αMeF]IAK([PEG2′-PEG2′-γGlu-Stearoyl])VV[αMeK]GG-NH2 [SEQ ID NO 104], the “cAMP Primary assay EC50 Gluc-R” value is 26 nM and the “cAMP Primary assay EC50 Gluc-R (2nd)” value came to 25.6 nM.

For a further assay, the target named is T1, glucose-dependent insulinotropic …. In words: cell-based or functional assay.
On to H[Aib]EGS[αMeF]TSDVK([PEG2′-PEG2′-γGlu-Stearoyl])S[αMeF]LEGEAA[αMeK]E[αMeF]IA[αMeF]VV[αMeK]GG-NH2 [SEQ ID NO 118], for which the “cAMP Primary assay EC50 GIP-R” value came out at 25 nM and the “cAMP Primary assay EC50 GIP-R (2nd)” value worked out at 25.2 nM.
In the case of H[Aib]EGS[αMeF]TSDV[αMeS]S[αMeF]LEGEAA[αMeK]K([PEG2′-PEG2′-γGlu-Stearoyl])[αMeF]IA[αMeF]VV[αMeK]GG-NH2 [SEQ ID NO 108], the “cAMP Primary assay EC50 GIP-R” value was found to be 25 nM and the “cAMP Primary assay EC50 GIP-R (2nd)” value stood at 25.4 nM.
H[Aib]EGS[αMeF]TSDK([PEG2′-PEG2′-γGlu-Stearoyl])[αMeS]S[αMeF]LEGEAA[αMeK]E[αMeF]IA[αMeF]VV[αMeK]GG-NH2 [SEQ ID NO 119]: the “cAMP Primary assay EC50 GIP-R” value stood at 25 nM and the “cAMP Primary assay EC50 GIP-R (2nd)” value worked out at 25.2 nM.
Turning to H[Aib]EGS[αMeF]TSDV[αMeS]S[αMeF]LEGK([PEG2′-PEG2′-γGlu-Stearoyl])AA[αMeK]E[αMeF]IA[αMeF]VV[αMeK]GG-NH2 [SEQ ID NO 112], the “cAMP Primary assay EC50 GIP-R” value came to 25 nM and the “cAMP Primary assay EC50 GIP-R (2nd)” value turned out to be 25.4 nM.
For H[Aib]EGS[αMeF]TSDV[αMeS]S[αMeF]LK([PEG2′-PEG2′-γGlu-Stearoyl])GEAA[αMeK]E[αMeF]IA[αMeF]VV[αMeK]GG-NH2 [SEQ ID NO 114], the “cAMP Primary assay EC50 GIP-R” value is 25 nM and the “cAMP Primary assay EC50 GIP-R (2nd)” value was 25.4 nM.
The corresponding values for H[Aib]EGS[αMeF]TSDV[αMeS]S[αMeF]LEGEAA[αMeK]E[αMeF]IA[αMeF]K([PEG2′-PEG2′-γGlu-Stearoyl])V[αMeK]GG-NH2 [SEQ ID NO 103] are 25 nM and 25.2 nM.
In the same order, the values of H[Aib]EGS[αMeF]TSDV[αMeS]K([PEG2′-PEG2′-γGlu-Stearoyl])[αMeF]LEGEAA[αMeK]E[αMeF]IA[αMeF]VV[αMeK]GG-NH2 [SEQ ID NO 117] are 25 nM and 25.1 nM.
On to H[Aib]EGS[αMeF]TSDV[αMeS]S[αMeF]LEGEAA[αMeK]E[αMeF]IAK([PEG2′-PEG2′-γGlu-Stearoyl])VV[αMeK]GG-NH2 [SEQ ID NO 104], for which the “cAMP Primary assay EC50 GIP-R” value is 26 nM and the “cAMP Primary assay EC50 GIP-R (2nd)” value came out at 25.6 nM.
